This is an account of results in PMC4444369 (Journal of molecular biology, 2014).

In the assay the target is APC3 (wild-type, untagged) (human, UniProt P30260-2 1-830). Put plainly: SEC. Background: In gel filtration, larger molecules generally elute earlier.

B1: APC16^C (Strep tag removed by TEV) (domain or fragment)
chain: not shown
As to B1, the binding result was “binds”.
